Each binder was assayed against T1, recombinant human TR-2 with a C-terminal hexahistidine tag (TR-2-His) (human, UniProt O14763 56-207) (assay: SPR Biacore 2000; antibody captured on anti-human antibody chip, 226 nM TR-2-His injected, 25 C, 1:1 model;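 also: goat anti-human capture surface amine-coupled on CM5 chip, HBS-P running buffer with BSA, responses normalized to captured antibody level, kinetics from global 1:1 fitting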).
T1 construct: also called soluble TR-2-His
Experimental: (§1) The kinetics of the binding of anti-TR-2 antibodies A to Q to TR-2 was analyzed using a Biacore® 2000 instrument. High-density goat anti-human antibody surfaces were prepared on CM-5 Biacore® chips using routine amine coupling. Each purified anti-TR-2 antibody was diluted to approximately 1 μg/ml in HBS-P running buffer containing 100 μg/ml BSA. Each anti-TR-2 antibody was captured on a separate surface using a two minute contact time and a five minute wash to stabilize the anti-TR-2 antibody surface on the chip.
(§2) Additionally, the data for TR-2 binding to anti-TR-2 antibody were normalized for the amount of monoclonal antibody captured on each surface. Each data set was fit globally to a 1:1 interaction model to determine binding kinetics.

Kd [nM] | koff [s⁻¹] | kon [M⁻¹ s⁻¹] | Binder
4.5 | 0.0027 | 620000 | anti-TR-2 antibody D (antibody, V domains shown, Human antibody from XenoMouse; also called Ab D) VH: QVQLQESGPGLVKPSQTLSLTCTVSGGSISSGGHYWSWIRQHPGKGLEWIGYIYYSGSAYYNPSLKSRVTISVDTSKNQFSLKLSSVTAADTAVYYCARDDSSGWGFDYWGQGILVTVSS VL: DIQMTQSPSSLSASVGDRVTITCRASQGLRNDLGWFQQKPGKAPKRLIYAASSLQRGVPSRFSGSGSGTEFTLTISSLQPEDFTTYFCLQHNSFPWTFGQGTKVEIK
3.9 | 0.0026 | 680000 | anti-TR-2 antibody C (antibody, V domains shown, Human antibody from XenoMouse; also called Ab C) VH: QVQLQESGPGLVKPSQTLSLTCTVSGGSISSGGHYWSWIRQHPGKGLEWIGYIYYSGSAYYNPSLKSRVTISVDTSKNQFSLKLSSVTAADTAVYYCARDDSSGWGFDYWGQGILVTVSS VL: DIQMTQSPSSLSASVGDRVTITCRASQGLRNDLGWFQQKPGKAPKRLIYAASSLQRGVPSRFSGSGSGTEFTLTISSLQPEDFTTYFCLQHNSFPWTFGQGTKVEIK
19 | 0.011 | 570000 | anti-TR-2 antibody B (antibody, V domains shown, Human antibody from XenoMouse; also called Ab B) VH: QVQLQESGPGLVKPSQTLSLTCTVSGGSISSGGHYWSWIRQHPGKGLEWIGYIYYSGSTYYNPSLKSRVTISVDTSKNQFSLKLSSVTAADTAVYYCARDDSSGWGFDYWGQGILVTVSS VL: DIQMTQSPSSLSASVGDRVTITCRASQGLRNDLGWFQQKPGKVTKRLIYAASSLQRGVPSRFSGSGSGTEFTLTISSLQPEDFATYYCLQHYSFPWTFGQGTKVEIK
2.1 | 0.0018 | 870000 | anti-TR-2 antibody E (antibody, V domains shown, also called Ab E) VH: QVQLVESGGGLVKPGGSLRLSCAASGFTFSDYYMNWIRQAPGKGLEWVSHISSSGSILDYADSVKGRFTISRDNAKNSLYLQMNSLRVEDTAVYYCARDGAAAGTDAFDLWGQGTMVTVSS VL: DIQMTQSPSSLSASVGDRVTITCRSSQSISNYINWYQQRPGKAPNLLIHDVSSFQSAVPSRFSRSGSGTVFTLTISSLQPEDFATYFCQQTYITPFTFGPGTKVDIK
6.9 | 0.0037 | 530000 | anti-TR-2 antibody A (antibody, V domains shown, also called Ab A) VH: QVQLVQSGAEVKKPGASVKVSCKASGYTFTSYDINWVRQATGQGLEWMGWMNPNSDNTGYAQKFQGRVTMTRNTSISTAYMELSSLRSEDTAVYYCARWNHYGSGSHFDYWGQGTLVTVSS VL: DIQMTQSPSSLSASVGDRVTITCRASQSISIYLNWYQQKPGKAPKLLIYAASSLQSGVPLRFSGSGSGTDFTLTISSLQPEDIATYYCQQSYKTPLTFGGGTKVEIK
12 | 0.0071 | 570000 | anti-TR-2 antibody J (antibody, V domains shown, also called Ab J) VH: QVQLVESGGGVVQPGRSLRLSCAASGFTFNNYGMHWVRQAPGKGLEWVAVIWYDGSNKYYADSVKGRFTISRDNSKNTLYLQMNSLRAEDTAVYYCARDRTVYSNSSPFYYYYYGMDVWGQGTTVTVSS VL: DIQMTQSPSSLSASVGDRVTITCRTSQSISTYLNWYQQKPGKAPKLLISATSSLQSGVPSRFSGSGSGTDFTLTISSLQPEDFATYYCQQSYSTPLTFGGGTKVEIK
18 | 0.012 | 680000 | anti-TR-2 antibody K (antibody, V domains shown, also called Ab K) VH: QVQLVESGGGVVQPGRSLRLSCAASGFTFSTYGMHWVRQAPGKGLEWVAVIWYDGSNKYYADSVKGRFTISRDNSKNTLYLQMNSLRAEDTAVYYCARDRTVYSSSSPFYYYYYGMDVWGQGTTVTVSS VL: DIQMTQSPSSLSASVGDRVTITCRASQSISSYLNWYQQKPGKAPKLLISATSSFQSGVPSRFSGSGSGTDFTLTISSLQPEDFAAYYCQQSYSTPLTFGGGTKVEIK
4.4 | 0.0013 | 290000 | anti-TR-2 antibody I (antibody, V domains shown, also called Ab I) VH: QVQLVESGGGLVKPGGSLRLSCAASGFTFSDYYMSWIRQAPGKGLEWVSYISRSGSTIYYADSVKGRFTISRDNAKNSLYLQMNSLRAEDTAVYYCARSLGGMDVWGQGTTVTVSS VL: not shown
9.8 | 0.0084 | 860000 | anti-TR-2 antibody H (antibody, V domains shown, also called Ab H) VH: QVQLQESGPGLVKPSQTLSLTCTVSGGSISSDNYYWSWIRQHPGKGLEWIGYIYYSGSTYYNPSLKSRVTISVDTSKNQFSLKLSSVTAADTAVYYCARGVNWNFLFDIWGQGTMVTVSS VL: not shown
31 | 0.019 | 600000 | anti-TR-2 antibody G (antibody, V domains shown, also called Ab G) VH: QVQAEQSGPGLVKPSETLSLTCTVSGGSISNYYWSWIRQPPGKGLEWIGYIYYSGSTKYNPSLKSRVTISVDTSKNQFSLKLTSVTTADTAVYYCARDSPRGFSGYEAFDSWGQGTLVTVSS VL: not shown
18 | 0.011 | 600000 | anti-TR-2 antibody L (antibody, V domains shown, also called Ab L) VH: QVQLQQWGARLLKPSETLSLTCAVYGGSFSGYYWSWIRQPPGKGLEWIGEINHSGSTNYNPSLKSRVTISVDTSKNQFSLKLRSVTAADTAVYYCARGGSSGYWYFDLWGRGTLVTVSS VL: not shown
37 | 0.012 | 340000 | anti-TR-2 antibody M (antibody, V domains shown, also called Ab M) VH: EVQVVESGGGLVKPGGSLRLSCAASGFTFSSYSMNWVRQAPGKGLEWVSSISSSSSYIYYADSVKGRFTISRDNAKNSLYLQMNSLRAEDTAVYYCARGGSSWYGDWFDPWGQGTLVTVSS VL: DIQMTQSPSSVSASVGDRVTITCRASQGISSWLVWYQQKPGKAPKLLIYAASSLQSGVPSRFSGSGSGTDFTLTISSLQPEDFATYYCQQANSFPFTFGGGTKVEIK
19 | 0.0084 | 440000 | anti-TR-2 antibody O (antibody, V domains shown, also called Ab O) VH: QVQLQESGPGLVKPSQTLSLTCTVSGGSISSGDYFWSWIRQLPGKGLECIGHIHNSGTTYYNPSLKSRVTISVDTSKKQFSLRLSSVTAADTAVYYCARDRGGDYYYGMDVWGQGTTVTVSS VL: EIVLTQSPGTLSLSPGERATLSCRASQGISRSYLAWYQQKPGQAPSLLIYGASSRATGIPDRFSGSGSGTDFTLTISRLEPEDFAVYYCQQFGSSPWTFGQGTKVEIK
13 | 0.005 | 380000 | anti-TR-2 antibody F (antibody, V domains shown, also called Ab F) VH: QVQLVESGGGVVQPGRSLRLSCAASGFTFSYYGIHWVRQAPGKGLEWVAVIWYDGSNKYYADSVKGRFTISRDNSKNTLYLQMNSLRAEDTAVYYCARGRYSSSSWWYFDLWGRGTLVTVSS VL: DIQMTQSPSSLSASVGDRVTITCRASQGISNYLAWYQQKPGKVPKLLIYAASTLQSGVPSRFSGSGSGTDFTLTISSLQPEDVATYYCQKYNSAPLTFGGGTKVEIK

What follows are binders tested against T1, recombinant human TR-2 with a … (assay: SPR Biacore 2000; antibody captured on anti-human antibody chip, 226 nM TR-2-His injected, 25 C, 1:1 model; data heterogeneous, fit poorly).
Experimental: as §1, §2

Kd [nM] | koff [s⁻¹] | kon [M⁻¹ s⁻¹] | Binder
33 | 0.027 | 810000 | anti-TR-2 antibody P (antibody, V domains shown, Human antibody from XenoMouse; also called Ab P) VH: QVQLQESGPGLVKPSQTLSLTCSVSGGSISSGGYYWSWIRQHPGKGLEWIGYIYYSGSTYCNPSLKSRVTISVDTSKNQFSLKLSSVTAADTAVYYCARDNGSGSYDWFDPWGQGILVTVSS VL: DIQMTQSPSSVSASVGDRVTITCRASQGISSWLAWYQQKPGKAPKFLIFVASSFQSGVPSRFSGSGSGTDFTLTISSLQPEDFATYYCQQANSFPRTFGQGTKVEIK
13 | 0.016 | 1.2e+06 | anti-TR-2 antibody Q (antibody, V domains shown, Human antibody from XenoMouse; also called Ab Q) VH: QVQMQESGPGLVKPSQTLSLTCTVSGGSISSGDYYWSWIRQHPGKNLEWIGYIYYSGSTYYNPSLKSRVTISVDTSKNQFSLKLSSVTAADTAVYYCARDNGSGSYDWFDPWGQGTLVTVSS VL: DIQMTQSPSSVSASVGDRVTITCRASQGISSWLAWYQQKPGKAPKFLIFVASSLQSGVPSRFSGSGSGTDFTLTISSLQPEDFATYYCQQANSFPRTFGQGTKVEIK
68 | 0.055 | 810000 | anti-TR-2 antibody N (antibody, V domains shown, also called Ab N) VH: QLVESGGGVVQPGRSLRLSCAASGFTFSSYGMHWVRQAPGKGLEWVAVIWYDGRNKYYADSVKGRFTISRDNSKNTLYLQMNSLRAEDTAVYYCAREVGYCTNGVCSYYYYGMDVWGQGTTVTVSS VL: DIQMTQSPSSLSASVGDRVTITCRASQGISNYLAWFQQKPGKAPKSLIYAASSLQSGVPSKFSGSGSGTDFTLTISSLQPEDFATYYCQQYNSYPLTFGGGTKVEIK

Reference: patent US20070179086A1 (Amgen, published 2007)
